The supplement of paper PMC9116672
± gives the standard deviation of the averaged measurements or the uncertainty stated by the source.

Key:
[1] = duplex formation enthalpy ΔH (Van't Hoff fit of HRM Tm); higher = less exothermic duplex formation; conditions: temperature for dG: 50 °C, NaCl: 500 mM (unadjusted)
Method in brief: (§1)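 Melting ran from 37 to 97°C at 0.1°C/s on a LightCycler96, with duplexes annealed 1:1 from phosphodiester or mixed Rp/Sp phosphorothioate DNA strands at 1–20 μM (four replicates) in 1× NNE buffer (500 mM NaCl, pH 7.0) plus 1× EvaGreen. A linear Van't Hoff regression of 1/Tm, with Tm the peak of -dF/dT, against ln(CT/4) yields enthalpy, entropy and free energy, the values not salt-adjusted and the errors being fit standard deviations. Free energy values are extrapolated to 50°C.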

[2] = duplex melting temperature (HRM, EvaGreen); higher = more stable duplex
Method in brief: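 Complementary DNA strands, either phosphodiester or phosphorothioate (Rp/Sp mixtures), were annealed 1:1 at 25 μM and diluted to 1–20 μM duplex in NNE buffer (500 mM NaCl, pH 7.0) containing 1× EvaGreen. Fluorescence at 470/514 nm was recorded on a LightCycler96 during heating from 37°C to 97°C at 0.1°C/s. The instrument software took the melting temperature as the peak of the negative dF/dT curve. Of four replicates, any without a clear peak were dropped and the remainder averaged.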

[3] = duplex formation entropy ΔS (Van't Hoff fit of HRM Tm); higher = smaller entropy loss on duplex formation; conditions: temperature for dG: 50 °C, NaCl: 500 mM (unadjusted)
Method in brief: as §1

[4] = duplex formation free energy ΔG50 (Van't Hoff fit of HRM Tm); higher = less stable duplex; conditions: temperature for dG: 50 °C, NaCl: 500 mM (unadjusted)
Method in brief: as §1

[5] = backbone: PO-PO (both strands phosphodiester DNA)
[6] = backbone: PS-PO (listed strand fully phosphorothioate, complement phosphodiester)
[7] = backbone: PS-PS (both strands fully phosphorothioate)
[8] = duplex concentration 1 µM, backbone: PO-PO (both strands phosphodiester DNA)
[9] = duplex concentration 1 µM, backbone: PS-PO (listed strand fully phosphorothioate, complement phosphodiester)
[10] = duplex concentration 1 µM, backbone: PS-PS (both strands fully phosphorothioate)
[11] = duplex concentration 2.5 µM, backbone: PO-PO (both strands phosphodiester DNA)
[12] = duplex concentration 2.5 µM, backbone: PS-PO (listed strand fully phosphorothioate, complement phosphodiester)
[13] = duplex concentration 2.5 µM, backbone: PS-PS (both strands fully phosphorothioate)
[14] = duplex concentration 5 µM, backbone: PO-PO (both strands phosphodiester DNA)
[15] = duplex concentration 5 µM, backbone: PS-PO (listed strand fully phosphorothioate, complement phosphodiester)
[16] = duplex concentration 5 µM, backbone: PS-PS (both strands fully phosphorothioate)
[17] = duplex concentration 7.5 µM, backbone: PO-PO (both strands phosphodiester DNA)
[18] = duplex concentration 7.5 µM, backbone: PS-PO (listed strand fully phosphorothioate, complement phosphodiester)
[19] = duplex concentration 7.5 µM, backbone: PS-PS (both strands fully phosphorothioate)
[20] = duplex concentration 10 µM, backbone: PO-PO (both strands phosphodiester DNA)
[21] = duplex concentration 10 µM, backbone: PS-PO (listed strand fully phosphorothioate, complement phosphodiester)
[22] = duplex concentration 10 µM, backbone: PS-PS (both strands fully phosphorothioate)
[23] = duplex concentration 15 µM, backbone: PO-PO (both strands phosphodiester DNA)
[24] = duplex concentration 15 µM, backbone: PS-PO (listed strand fully phosphorothioate, complement phosphodiester)
[25] = duplex concentration 15 µM, backbone: PS-PS (both strands fully phosphorothioate)
[26] = duplex concentration 20 µM, backbone: PO-PO (both strands phosphodiester DNA)
[27] = duplex concentration 20 µM, backbone: PS-PO (listed strand fully phosphorothioate, complement phosphodiester)
[28] = duplex concentration 20 µM, backbone: PS-PS (both strands fully phosphorothioate)

| Sequence | duplex formation enthalpy ΔH [1, 5] | duplex formation enthalpy ΔH [1, 6] | duplex formation enthalpy ΔH [1, 7] | duplex melting temperature [2, 8] | duplex melting temperature [2, 9] | duplex melting temperature [2, 10] | duplex melting temperature [2, 11] | duplex melting temperature [2, 12] | duplex melting temperature [2, 13] | duplex melting temperature [2, 14] | duplex melting temperature [2, 15] | duplex melting temperature [2, 16] | duplex melting temperature [2, 17] | duplex melting temperature [2, 18] | duplex melting temperature [2, 19] | duplex melting temperature [2, 20] | duplex melting temperature [2, 21] | duplex melting temperature [2, 22] | duplex melting temperature [2, 23] | duplex melting temperature [2, 24] | duplex melting temperature [2, 25] | duplex melting temperature [2, 26] | duplex melting temperature [2, 27] | duplex melting temperature [2, 28] | duplex formation entropy ΔS [3, 5] | duplex formation entropy ΔS [3, 6] | duplex formation entropy ΔS [3, 7] | duplex formation free energy ΔG50 [4, 5] | duplex formation free energy ΔG50 [4, 6] | duplex formation free energy ΔG50 [4, 7] |
| --- | --- | --- | --- | --- | --- | --- | --- | --- | --- | --- | --- | --- | --- | --- | --- | --- | --- | --- | --- | --- | --- | --- | --- | --- | --- | --- | --- | --- | --- | --- |
| GAGCAGAAGGGGTTGT | -68.3 ± 2.9 kcal/mol | -70.9 ± 1.2 kcal/mol | -63.9 ± 2.9 kcal/mol | 63.5 ± 1.7 °C | 58.19 ± 0.23 °C | 49.7 ± 0.9 °C | 66.19 ± 0.54 °C | 60.88 ± 0.2 °C | 53.7 ± 0.54 °C | 68.16 ± 0.65 °C | 63.08 ± 0.15 °C | 55.97 ± 0.26 °C | 69.5 ± 0.73 °C | 64.37 ± 0.09 °C | 57.22 ± 0.19 °C | 70.88 ± 0.2 °C | 65.29 ± 0.073 °C | 57.97 ± 0.097 °C | 72.362 ± 0.008 °C | 66.57 ± 0.019 °C | 59.215 ± 0.054 °C | 73.62 ± 0.15 °C | 67.52 ± 0.11 °C | 60.08 ± 0.23 °C | -173 ± 8.6 cal/mol/K | -184 ± 3.5 cal/mol/K | -167 ± 8.8 cal/mol/K | -12.4 ± 0.17 kcal/mol | -11.48 ± 0.05 kcal/mol | -9.823 ± 0.063 kcal/mol |
| CCACTAGCGGCGCCGTT | -97 ± 4 kcal/mol | -75.1 ± 2.5 kcal/mol | -79.8 ± 1.8 kcal/mol |  | 67.57 ± 0.56 °C | 62.65 ± 0.14 °C | 78.31 ± 0.24 °C | 70.82 ± 0.38 °C | 65.52 ± 0.13 °C | 80.05 ± 0.14 °C | 73 ± 0.26 °C | 67.54 ± 0.18 °C | 81.18 ± 0.29 °C | 74.33 ± 0.2 °C | 68.59 ± 0.13 °C | 81.87 ± 0.19 °C | 75.285 ± 0.053 °C | 69.501 ± 0.06 °C | 83.03 ± 0.12 °C | 76.37 ± 0.18 °C | 70.49 ± 0.094 °C | 83.58 ± 0.28 °C | 77.3 ± 0.13 °C | 71.36 ± 0.16 °C | -247 ± 11 cal/mol/K | -190 ± 7.2 cal/mol/K | -207 ± 5.3 cal/mol/K | -17 ± 0.36 kcal/mol | -13.7 ± 0.17 kcal/mol | -12.8 ± 0.097 kcal/mol |
| GTCATTGTGCTTTTGC | -78.5 ± 1.9 kcal/mol | -69.8 ± 2.2 kcal/mol | -79.9 ± 3.5 kcal/mol | 60.6 °C | 49.8 ± 0.38 °C | 45.054 ± 0.018 °C | 63.26 ± 0.54 °C | 52.96 ± 0.069 °C | 46.77 ± 0.14 °C | 65.29 ± 0.25 °C | 55.24 ± 0.19 °C | 48.65 ± 0.052 °C | 66.35 ± 0.14 °C | 56.46 ± 0.16 °C | 49.65 ± 0.053 °C | 67.27 ± 0.084 °C | 57.2 ± 0.17 °C | 50.58 ± 0.096 °C | 68.53 ± 0.17 °C | 58.37 ± 0.089 °C | 51.65 ± 0.14 °C | 69.4 ± 0.17 °C | 59.15 ± 0.096 °C | 52.76 ± 0.13 °C | -205 ± 5.7 cal/mol/K | -186 ± 6.7 cal/mol/K | -221 ± 11 cal/mol/K | -12.27 ± 0.096 kcal/mol | -9.798 ± 0.043 kcal/mol | -8.432 ± 0.028 kcal/mol |
| CGTGTGGATAATTAGCT | -83.9 ± 2 kcal/mol | -81 ± 2.4 kcal/mol | -80.3 ± 3 kcal/mol | 61.98 ± 0.083 °C |  | 45.73 ± 0.44 °C | 64.1 ± 0.3 °C | 56.74 ± 0.17 °C | 48.55 ± 0.15 °C | 65.87 ± 0.1 °C | 58.92 ± 0.14 °C | 50.38 ± 0.16 °C | 66.87 ± 0.1 °C | 59.81 ± 0.096 °C | 51.21 ± 0.21 °C | 67.8 ± 0.11 °C | 60.627 ± 0.006 °C | 51.88 ± 0.24 °C | 68.959 ± 0.05 °C | 61.686 ± 0.014 °C | 52.84 ± 0.21 °C | 69.9 ± 0.083 °C | 62.48 ± 0.14 °C | 53.67 ± 0.26 °C | -220 ± 5.9 cal/mol/K | -217 ± 7.2 cal/mol/K | -221 ± 9.2 cal/mol/K | -12.67 ± 0.099 kcal/mol | -10.86 ± 0.074 kcal/mol | -8.757 ± 0.024 kcal/mol |
| CGATTTTGTCAAGCCT |  | -74 ± 2.7 kcal/mol | -66.5 ± 1.8 kcal/mol | 64.1 °C | 52.6 °C | 45 ± 0.64 °C | 64.84 ± 0.3 °C | 55.56 ± 0.073 °C | 48.27 ± 0.26 °C | 66.53 ± 0.27 °C | 57.82 ± 0.17 °C | 50.1 ± 0.15 °C | 67.75 ± 0.37 °C | 58.86 ± 0.14 °C | 51.53 ± 0.24 °C | 68.64 ± 0.33 °C | 59.74 ± 0.12 °C | 52.43 ± 0.088 °C | 70.02 ± 0.072 °C | 60.94 ± 0.033 °C | 53.55 ± 0.096 °C | 70.68 ± 0.17 °C | 61.81 ± 0.11 °C | 54.55 ± 0.15 °C |  | -197 ± 8.1 cal/mol/K | -179 ± 5.5 cal/mol/K |  | -10.45 ± 0.08 kcal/mol | -8.766 ± 0.018 kcal/mol |
| TCTACACCGCGA | -54.3 ± 4.1 kcal/mol | -46.4 ± 3.2 kcal/mol | -44.4 ± 2.7 kcal/mol |  |  | 41.3 ± 0.82 °C |  |  | 45.5 ± 0.56 °C | 62.45 ± 0.36 °C | 57 °C | 48.18 ± 0.13 °C | 64.36 ± 0.22 °C | 58.2 ± 0.61 °C | 49.78 ± 0.41 °C | 65.78 ± 0.25 °C | 60.1 ± 0.43 °C | 52 ± 0.91 °C | 67.547 ± 0.058 °C | 61.71 ± 0.24 °C | 54.2 ± 1.4 °C | 68.14 ± 0.13 °C | 63.08 ± 0.18 °C |  | -135 ± 12 cal/mol/K | -114 ± 9.5 cal/mol/K | -111 ± 8.4 cal/mol/K | -10.8 ± 0.19 kcal/mol | -9.65 ± 0.1 kcal/mol | -8.523 ± 0.038 kcal/mol |
| CAAGCCTCGATTTTGT | -72.5 ± 2.1 kcal/mol | -71.3 ± 1.6 kcal/mol | -63.1 ± 2.1 kcal/mol |  |  | 46.56 ± 0.31 °C | 64.39 ± 0.47 °C | 56.69 ± 0.17 °C | 50.11 ± 0.18 °C | 66.83 ± 0.17 °C | 58.85 ± 0.28 °C | 52.41 ± 0.077 °C | 68.04 ± 0.08 °C | 60.19 ± 0.34 °C | 53.632 ± 0.045 °C | 68.83 ± 0.17 °C | 60.95 ± 0.27 °C | 54.55 ± 0.083 °C | 70.12 ± 0.2 °C | 62.25 ± 0.24 °C | 55.802 ± 0.033 °C | 71.17 ± 0.15 °C | 63.14 ± 0.43 °C | 56.6 ± 0.35 °C | -186 ± 6 cal/mol/K | -188 ± 4.9 cal/mol/K | -167 ± 6.5 cal/mol/K | -12.29 ± 0.11 kcal/mol | -10.63 ± 0.052 kcal/mol | -9.148 ± 0.028 kcal/mol |
